In test [1] the target is COBRA P1 HA N127D mutant, CHO expressed, for binding assays. The experiment in a line: BLI; Octet RED384; HA loaded on anti-Penta-His biosensors (10 μg/mL), Fab 1F8 15 nM to 0.556 nM in solution; PBS, 1% BSA, 0.05% Tween 20; 30 °C; 1:1 model with mass transport limitation; mean of two independent experiments. (In general: In BLI a coated tip is dipped into the sample, and binding shifts an interference pattern.)

Test [2] has as its target COBRA P1 HA wild type, CHO expressed, for binding assays. The test is described as above.

B1: Fab 1F8 (recombinant Fab of the P1-elicited mouse monoclonal antibody 1F8) (Fab, V domains shown)
VH: QVQLQQSGAELMKPGASVKISCKATGYTFSSYWIEWVKQRPGHGLEWIGEILPGSGRTNYDERFKGKATFTADTSSNTAYMQLSSLTSEDSAVYYCARPRIYGMDYWGQGTSVTVSS
VL: DIVLTQSPASLAVSLGQRATISCKASQSVDFDGDTYMSWYQQKPGQPPKLLIYAASKLESGIPARFSGSGSGTDFTLNIHPVEEEDAATYFCQQSNEDPWTFGGGTKLEIK
In general, Kd refers to the concentration at which binding is half-saturated. Higher therefore signals a looser complex. Turning to B1, the Kd in test [1] came to 0.86 nM; in test [2] it was 2.95 nM.

The record behind these values is PMC10126545.
